# Data published in publication PMC6450878.
# Key:
# [1] = target: eGFP-talin1 (human talin1) (UniProt Q9Y490); assay: OPTIC assay (microscopy of GFP-talin1 recruitment to clustered CEACAM3-integrin fusion proteins in 293T cells); details: 293 T cells co-transfected with CEACAM3-integrin fusion constructs and GFP-talin1, infected for 1 h with Pacific Blue-labeled Ngo, read off a plot
# [2] = target: CEACAM3-integrin β3 fusion construct (CEA3-ITGB3) (human) (UniProt P05106); assay: OPTIC (Opa protein triggered integrin clustering; recruitment of a fluorescent protein to the clustered chimeric receptor, confocal microscopy); 293T cells co-transfected with CEA3-ΔCT or a CEA3-ITGB chimera and the protein of interest fused to eGFP or mCherry, seeded on poly-L-lysine; infected 1 h with Pacific Blue-stained Opa52-expressing N. gonorrhoeae at MOI 20; fixed, stained for CEACAM3; R = maximum fluorescence at the clustered chimera / mean fluorescence of the cell; R > 2 defined as positive recruitment; n = 60 cells
# [3] = target: CEACAM3-integrin β1 fusion construct (CEA3-ITGB1) (human) (UniProt P05556); assay: as above
# [4] = target: CEACAM3-integrin β5 fusion construct (CEA3-ITGB5) (human) (UniProt P18084); assay: as above
# [5] = target: CEA3-ITGB2 C.ow (CEACAM3 fused to the cytoplasmic domain of Capsaspora owczarzaki integrin β homologue ITGB2 C.ow) (human | Capsaspora owczarzaki); assay: as above
# [6] = target: CEACAM3-integrin β2 fusion construct (CEA3-ITGB2) (human) (UniProt P05107); assay: as above
# [7] = target: CEA3-ITGB1 C.ow (CEACAM3 fused to the cytoplasmic domain of Capsaspora owczarzaki integrin β homologue ITGB1 C.ow) (human | Capsaspora owczarzaki); assay: as above
# CEA3-ITGB1 Y783A (human) = CEA3-ITGB1 Y783A (human) (UniProt P05556); assay: as above
# Sequence of UniProt Q9Y490 (Q9Y490 whole entry, looked up, the tested form may be a part): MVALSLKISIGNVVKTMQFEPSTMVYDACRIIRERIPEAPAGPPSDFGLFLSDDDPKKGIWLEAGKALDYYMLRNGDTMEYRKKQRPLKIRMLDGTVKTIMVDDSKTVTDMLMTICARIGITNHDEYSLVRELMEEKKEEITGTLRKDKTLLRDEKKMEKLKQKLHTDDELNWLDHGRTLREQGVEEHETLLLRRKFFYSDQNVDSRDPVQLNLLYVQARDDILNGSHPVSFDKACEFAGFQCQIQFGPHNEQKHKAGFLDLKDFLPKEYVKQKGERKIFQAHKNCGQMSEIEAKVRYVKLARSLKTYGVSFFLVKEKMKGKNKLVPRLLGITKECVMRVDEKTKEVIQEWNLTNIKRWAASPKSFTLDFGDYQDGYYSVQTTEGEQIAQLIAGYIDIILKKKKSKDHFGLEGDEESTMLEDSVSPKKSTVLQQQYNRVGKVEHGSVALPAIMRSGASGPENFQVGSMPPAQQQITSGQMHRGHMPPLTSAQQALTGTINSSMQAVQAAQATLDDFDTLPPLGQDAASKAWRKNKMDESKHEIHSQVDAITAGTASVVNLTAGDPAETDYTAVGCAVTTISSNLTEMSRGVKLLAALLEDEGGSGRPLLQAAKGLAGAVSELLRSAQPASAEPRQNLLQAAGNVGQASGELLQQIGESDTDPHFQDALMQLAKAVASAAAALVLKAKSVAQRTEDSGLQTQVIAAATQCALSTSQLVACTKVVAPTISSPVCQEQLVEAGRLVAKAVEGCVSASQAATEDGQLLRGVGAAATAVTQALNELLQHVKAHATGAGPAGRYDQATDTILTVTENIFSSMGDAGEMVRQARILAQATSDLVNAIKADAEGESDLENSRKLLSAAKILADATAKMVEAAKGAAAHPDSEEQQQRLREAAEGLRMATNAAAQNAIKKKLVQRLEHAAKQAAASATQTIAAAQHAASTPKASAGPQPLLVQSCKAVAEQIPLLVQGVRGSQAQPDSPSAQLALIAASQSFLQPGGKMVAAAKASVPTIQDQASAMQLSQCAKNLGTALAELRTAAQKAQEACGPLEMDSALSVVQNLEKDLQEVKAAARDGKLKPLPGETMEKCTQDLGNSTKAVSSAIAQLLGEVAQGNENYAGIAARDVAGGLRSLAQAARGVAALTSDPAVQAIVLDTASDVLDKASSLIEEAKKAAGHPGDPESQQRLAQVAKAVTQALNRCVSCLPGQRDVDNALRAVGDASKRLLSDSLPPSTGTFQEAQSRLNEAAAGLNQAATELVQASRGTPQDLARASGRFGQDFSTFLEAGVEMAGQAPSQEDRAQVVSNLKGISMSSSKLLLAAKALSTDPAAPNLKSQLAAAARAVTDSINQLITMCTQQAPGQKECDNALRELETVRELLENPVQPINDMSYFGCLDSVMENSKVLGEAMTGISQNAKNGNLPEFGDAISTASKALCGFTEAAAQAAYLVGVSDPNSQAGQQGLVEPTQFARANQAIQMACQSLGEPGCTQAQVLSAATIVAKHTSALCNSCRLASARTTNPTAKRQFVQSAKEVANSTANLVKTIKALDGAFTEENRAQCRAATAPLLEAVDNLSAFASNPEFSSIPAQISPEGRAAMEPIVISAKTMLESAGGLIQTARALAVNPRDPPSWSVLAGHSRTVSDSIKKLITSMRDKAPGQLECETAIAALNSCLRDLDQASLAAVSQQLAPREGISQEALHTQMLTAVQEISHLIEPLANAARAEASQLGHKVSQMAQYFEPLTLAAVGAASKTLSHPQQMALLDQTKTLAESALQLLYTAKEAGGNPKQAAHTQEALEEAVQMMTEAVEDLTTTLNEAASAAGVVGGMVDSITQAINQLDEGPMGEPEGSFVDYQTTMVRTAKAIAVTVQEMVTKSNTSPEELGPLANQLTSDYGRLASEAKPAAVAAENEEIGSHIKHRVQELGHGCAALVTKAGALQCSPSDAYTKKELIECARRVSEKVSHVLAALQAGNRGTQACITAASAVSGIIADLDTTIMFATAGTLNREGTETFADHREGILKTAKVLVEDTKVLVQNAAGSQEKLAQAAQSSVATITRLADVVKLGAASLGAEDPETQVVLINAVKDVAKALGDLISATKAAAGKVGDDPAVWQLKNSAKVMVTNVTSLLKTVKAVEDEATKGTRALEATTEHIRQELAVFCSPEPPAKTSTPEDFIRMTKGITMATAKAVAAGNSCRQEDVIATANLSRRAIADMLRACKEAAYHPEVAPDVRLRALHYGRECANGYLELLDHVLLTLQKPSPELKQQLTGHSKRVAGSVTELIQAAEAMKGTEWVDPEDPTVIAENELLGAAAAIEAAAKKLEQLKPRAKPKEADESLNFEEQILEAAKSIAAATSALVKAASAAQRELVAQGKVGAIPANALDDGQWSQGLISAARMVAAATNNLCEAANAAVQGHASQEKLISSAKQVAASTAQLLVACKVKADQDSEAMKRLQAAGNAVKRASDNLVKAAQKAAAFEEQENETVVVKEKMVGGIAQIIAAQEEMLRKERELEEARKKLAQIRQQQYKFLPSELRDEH
Substance,recruitment ratio R (mean) [2],recruitment ratio R (mean) [3],percent of cells with R >= 2 [3] [%],other results
CEA3-ITGB2 C.ow (CEACAM3 fused to the cytoplasmic domain of Capsaspora owczarzaki integrin β homologue ITGB2 C.ow) F1038A,–,–,–,"other: talin recruitment ratio R ([1]; n = 60 cells from three …, parent: est. 2.6): 2.2; other: percentage of cells with talin recruitment R ≥ 2 ([1]; parent: est. 64): 59%"
eGFP-tagged human kindlin-2 (from UniProt Q96AC1 1-680) (natural protein),2.4,3.9,–,–
eGFP-tagged paxillin (from UniProt P49023 1-591) (natural protein),2.57,2.92,–,–
eGFP-talin1 (human talin1) (from UniProt Q9Y490 1-2541) (natural protein),3.78,3.41,85,percent of cells with R >= 2 [4]: 62%; recruitment ratio R (mean) [4]: 2.1; percent of cells with R >= 2 [2]: 85%; recruitment ratio R [5]: > 2; percent of cells with R >= 2 [6]: 85%; recruitment ratio R [7]: > 2
mCherry,–,1.5,–,–
mCherry-talin1 (human talin1) (from UniProt Q9Y490 1-2541) (natural protein),–,2.84,85,percent of cells with R >= 2 (CEA3-ITGB1 Y783A (human)): 17%; recruitment ratio R (mean) (CEA3-ITGB1 Y783A (human)): 1.8
